The source of these data is publication PMC4017264 (Molecular Cell, 2014).

The chains are these.
B1: HOIP extended PUB domain (aa 1–184) [not stated] / FITC-Ahx-labeled OTULIN PIM peptide (aa 49–67) [modified: FITC-Ahx label; FITC-Ahx label] [not stated] (parent complex)
chain 1: MPGEEEERAFLVAREELASALRRDSGQAFSLEQLRPLLASSLPLAARYLQLDAARLVRCNAHGEPRNYLNTLSTALNILEKYGRNLLSPQRPRYWRGVKFNNPVFRSTVDAVQGGRDVLRLYGYTEEQPDGLSFPEGQEEPDEHQVATVTLEVLLLRTELSLLLQNTHPRQQALEQLLEDKVED
chain 2: AEHEEDMYRAADEIEKEKE

The variants in the first experiment derive from B1. Nature of the experiment: fluorescence polarisation; triplicate.
In the case of chain 1 V104A, the dissociation constant (Kd) came to 2.03 µM.

The next experiment covers variants of B1. The experiment in a line: fluorescence polarisation; triplicate. This is another data set of the same source.
On to chain 2 Y8W, for which the equilibrium dissociation constant (Kd) worked out at 21.3 µM.
With chain 2 Y8F, the Kd was 64.5 µM.
Same read-out and setting: to chain 2 D6A belongs 11.2 µM.
